Results: patent publication US7119182 (University of California, dated 2006)
Square brackets hold non-standard residues; d marks the D form. Ends that are not written are not given here. * marks the point of attachment. SMeMpr = S-methyl-3-mercaptopropionic acid, CSCCC(=O)*; 2‑Mba = 2-mercaptobenzoic acid, O=C(c1ccccc1S)*; Cha = N[C@@H](CC1CCCCC1)C(=O)O; Mpa = O=C(O)CCS

B1: (2-Mba)-F(Cha)(Cha)RKPNDK-NH2 (peptide)
peptide: {2‑Mba}-F[Cha][Cha]RKPNDK-NH2
SMILES: N=C(N)NCCC[C@H](NC(=O)[C@H](CC1CCCCC1)NC(=O)[C@H](CC1CCCCC1)NC(=O)[C@H](Cc1ccccc1)NC(=O)c1ccccc1S)C(=O)N[C@@H](CCCCN)C(=O)N1CCC[C@H]1C(=O)N[C@@H](CC(N)=O)C(=O)N[C@@H](CC(=O)O)C(=O)N[C@@H](CCCCN)C(N)=O
B2: Mpr-F(Cha) (Cha)RNPNDA-NH2 (peptide)
peptide: [Mpa]F[Cha][Cha]RNPNDA-NH2
SMILES: C[C@H](NC(=O)[C@H](CC(=O)O)NC(=O)[C@H](CC(N)=O)NC(=O)[C@@H]1CCCN1C(=O)[C@H](CC(N)=O)NC(=O)[C@H](CCCNC(=N)N)NC(=O)[C@H](CC1CCCCC1)NC(=O)[C@H](CC1CCCCC1)NC(=O)[C@H](Cc1ccccc1)NC(=O)CCS)C(N)=O
B3: Mpr-F(Cha) (Cha)RNPNAK-NH2 (peptide)
peptide: [Mpa]F[Cha][Cha]RNPNAK-NH2
SMILES: C[C@H](NC(=O)[C@H](CC(N)=O)NC(=O)[C@@H]1CCCN1C(=O)[C@H](CC(N)=O)NC(=O)[C@H](CCCNC(=N)N)NC(=O)[C@H](CC1CCCCC1)NC(=O)[C@H](CC1CCCCC1)NC(=O)[C@H](Cc1ccccc1)NC(=O)CCS)C(=O)N[C@@H](CCCCN)C(N)=O
B4: (SMeMpr)-F(Cha)(Cha)RKPNDK-NH2 (peptide)
peptide: SMeMpr-F[Cha][Cha]RKPNDK-NH2
SMILES: CSCCC(=O)N[C@@H](Cc1ccccc1)C(=O)N[C@@H](CC1CCCCC1)C(=O)N[C@@H](CC1CCCCC1)C(=O)N[C@@H](CCCNC(=N)N)C(=O)N[C@@H](CCCCN)C(=O)N1CCC[C@H]1C(=O)N[C@@H](CC(N)=O)C(=O)N[C@@H](CC(=O)O)C(=O)N[C@@H](CCCCN)C(N)=O
B5: Mpr-F(Cha) (Cha)RKPNDA-NH2 (peptide)
peptide: [Mpa]F[Cha][Cha]RKPNDA-NH2
SMILES: C[C@H](NC(=O)[C@H](CC(=O)O)NC(=O)[C@H](CC(N)=O)NC(=O)[C@@H]1CCCN1C(=O)[C@H](CCCCN)NC(=O)[C@H](CCCNC(=N)N)NC(=O)[C@H](CC1CCCCC1)NC(=O)[C@H](CC1CCCCC1)NC(=O)[C@H](Cc1ccccc1)NC(=O)CCS)C(N)=O
B6: Mpr-FLLRNPNDKYE-NH2 (peptide)
peptide: [Mpa]FLLRNPNDKYE-NH2
SMILES: CC(C)C[C@H](NC(=O)[C@H](Cc1ccccc1)NC(=O)CCS)C(=O)N[C@@H](CC(C)C)C(=O)N[C@@H](CCCNC(=N)N)C(=O)N[C@@H](CC(N)=O)C(=O)N1CCC[C@H]1C(=O)N[C@@H](CC(N)=O)C(=O)N[C@@H](CC(=O)O)C(=O)N[C@@H](CCCCN)C(=O)N[C@@H](Cc1ccc(O)cc1)C(=O)N[C@@H](CCC(=O)O)C(N)=O

What was measured:
Experiment in all cases: cell-based or functional assay
[1] = target: T1, human thrombin receptor (human, UniProt P25116 42-425)
T1 chain: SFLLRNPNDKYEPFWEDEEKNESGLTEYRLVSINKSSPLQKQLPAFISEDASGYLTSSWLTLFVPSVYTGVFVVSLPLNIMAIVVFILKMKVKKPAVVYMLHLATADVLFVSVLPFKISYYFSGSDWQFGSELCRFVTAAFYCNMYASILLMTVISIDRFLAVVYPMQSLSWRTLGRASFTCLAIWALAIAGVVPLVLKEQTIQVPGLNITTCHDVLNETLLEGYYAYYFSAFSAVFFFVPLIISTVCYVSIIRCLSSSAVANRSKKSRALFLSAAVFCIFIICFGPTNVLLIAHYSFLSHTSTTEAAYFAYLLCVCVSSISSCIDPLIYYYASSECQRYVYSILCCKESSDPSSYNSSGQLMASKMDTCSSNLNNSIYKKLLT

[2] = target: thrombin (UniProt P00734 364-622; P00734 328-363)
[3] = target: T2, mutant thrombin receptor with the amino acid substitution R41A (human, UniProt P25116 22-425, limits assumed)
T2 chain: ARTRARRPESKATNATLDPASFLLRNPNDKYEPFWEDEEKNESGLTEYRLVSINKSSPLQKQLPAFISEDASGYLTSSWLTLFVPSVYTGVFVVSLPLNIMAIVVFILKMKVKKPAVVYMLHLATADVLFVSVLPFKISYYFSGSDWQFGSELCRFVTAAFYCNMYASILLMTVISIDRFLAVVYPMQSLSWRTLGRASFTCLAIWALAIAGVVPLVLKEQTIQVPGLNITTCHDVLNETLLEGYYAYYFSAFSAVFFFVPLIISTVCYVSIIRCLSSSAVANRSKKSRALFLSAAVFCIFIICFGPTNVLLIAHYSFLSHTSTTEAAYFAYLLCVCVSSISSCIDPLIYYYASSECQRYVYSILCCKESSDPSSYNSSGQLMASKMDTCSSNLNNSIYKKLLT

[4] = target: T1, human thrombin receptor

Row | Binder | IC50 (50% inhibition of thrombin-induced platelet activation or aggregation) [1] [µM] | other results
1 | B1 | 50 | 
2 | B2 | 50 | 
3 | LDPRPFLLRNPNDKYEPFWEDEEKNES |  | IC50, inhibition of thrombin-induced platelet ATP secretion (peptide preincubated with thrombin) [2]: ~0.5 µM
4 | B3 | > 100 | 
5 | {Cam‑Mpr}-FLLR-NH2 [[Cam-Mpr]-FLLR-NH2] | 1000 | 
6 | B4 | 10 | 
7 | B5 | 50 | 
8 | LDPRPFLL |  | IC50, inhibition of thrombin-induced platelet ATP secretion (peptide preincubated with thrombin) [2]: ~200 µM
9 | Pivaloyl-FLLR-NH2 [Pivaloyl-FLLR-NH2] | 1000 | 
10 | [Mpa]FLLRNPNDK [Mpr-FLLRNPNDK] | 80 | 
11 | B6 | 108 | 
12 | [Mpa]F[Cha][Cha]RKPNEK-NH2 [Mpr-P(Cha) (Cha)RKPNEK-NH2] | 10 | 
13 | SFLLRNPNDKYEPF ["new amino-terminal" peptide SFLLRNPNDKYEPF] |  | Fold increase in 45Ca (release by oocytes expressing receptor cRNA); “SFLL” peptide 200 µM [3]: 53 fold; Fold increase in 45Ca (release by oocytes expressing receptor cRNA); “SFLL” peptide 40 µM [4]: 32 fold; Fold increase in 45Ca (release by oocytes expressing receptor cRNA); “SFLL” peptide 200 µM [4]: 42 fold
